Target: HA-bromoTAG-PPM1H

- decrease in tail phosphorylation of dTAG-SMAD3 by immunoblot in U2OS cells co-expressing both, 2 h TGF-β with BDPIC 0.1-10 μM against DMSO: 50%
Substance: FLAG-dTAG-SMAD3
